Experimental data as given in US20070172423A1, “Composition and method for modulating vasculogenesis for angiogenesis” (priority 1998, published 2007).

Columns and labels:
PDGF beta receptors = PDGF beta receptors (Homo sapiens, UniProt P09619); assay: Binding of radiolabeled truncated PDGF-C to PAE-1 cells expressing PDGF beta receptors; set-up: expressed in transfected cells; host or cells: porcine aortic endothelial (PAE-1) cells; conditions: 125I-labeled protein, on ice 90 minutes
Protocol: To assess the interactions between truncated PDGF-C and the PDGF alpha and beta receptors, truncated PDGF-C was tested for its capacity to bind to porcine aortic endothelial-1 (PAE-1) cells expressing PDGF alpha or beta receptors, respectively (Eriksson et al., EMBO J, 1992 11:543-550). The binding experiments were performed essentially as described in Heldin et al. (EMBO J, 1988 7:1387 1393). Five micrograms of truncated PDGF-C protein in ten microliters of sodium borate buffer was radiolabeled using the Bolton-Hunter reagent (Amersham) to a specific activity of 4×10^5 cpm/ng. Different concentrations of radiolabeled truncated PDGF-C, with or without added unlabeled protein, in binding buffer (PBS containing 1 mg/ml of bovine serum albumin) was added to the receptor expressing PAE-1 cells plated in 24-well culture dishes on ice for 90 minutes. After three washes with binding buffer, cell-bound ^125I-labeled PDGF-C was extracted by lysis of cells in 20 mM Tris-HCl, pH 7.5, 10% glycerol, 1% Triton X-100. The amount of cell-bound radioactivity was determined in a gamma-counter. Non-specific binding was estimated by including a 100-fold molar excess of truncated PDGF-C in some experiments. […] The binding was specific as radiolabeled PDGF-C was quantitatively displaced by a 100-fold molar excess of unlabeled protein.

infarcted heart area = assay: Revascularization following heart infarction (LAD ligation), Examples 16-17; format: in vivo, mice
Protocol: Chronic myocardial ischemia was replicated by ligation of the left anterior descending (LAD) coronary artery using anesthetized 10 week old normal C57B16 mice. For PDGF-C treatment mice, 10 μg of recombinant human PDGF-CC core domain protein produced in baculovirus infected insect cells were administered after heart infarction using a subcutaneous osmotic minipump for seven days (ALZET™osmotic pump, DURECT Corporation, Cupertino, Calif.). Seven days after LAD ligation, infarcted hearts were fixed and collected. The PDGF-CC core domain protein (SEQ ID NO: 40) corresponds to corresponds to residues 230-345 of full-length PDGF-C protein i.e. amino acids 230-345 of SEQ ID NO:3. The hearts were sectioned longitudinally into 6 μm sections. Hematoxylin-eosine and immunohistochemical stainings were performed using thrombomodulin as a marker for endothelial cells. Smooth muscle alpha-actin was used as a marker for vascular smooth muscle cells. Infarcted areas and vessel densities were calculated using a Quantinet Q600 image analysis system (Leica, Brussels, Belgium). Data were statistically analyzed using the Student T test.
The same experiment as discussed in Example 16 was repeated using 30 μg recombinant PDGF-C per mouse.

PDGF alpha receptors = PDGF alpha receptors (Homo sapiens, UniProt P16234); assay: PDGF alpha-receptor phosphorylation in PAE cells; format: cell-based; set-up: expressed in transfected cells; conditions: 100 ng/ml
Chain of PDGF alpha receptors (P16234 24-1089): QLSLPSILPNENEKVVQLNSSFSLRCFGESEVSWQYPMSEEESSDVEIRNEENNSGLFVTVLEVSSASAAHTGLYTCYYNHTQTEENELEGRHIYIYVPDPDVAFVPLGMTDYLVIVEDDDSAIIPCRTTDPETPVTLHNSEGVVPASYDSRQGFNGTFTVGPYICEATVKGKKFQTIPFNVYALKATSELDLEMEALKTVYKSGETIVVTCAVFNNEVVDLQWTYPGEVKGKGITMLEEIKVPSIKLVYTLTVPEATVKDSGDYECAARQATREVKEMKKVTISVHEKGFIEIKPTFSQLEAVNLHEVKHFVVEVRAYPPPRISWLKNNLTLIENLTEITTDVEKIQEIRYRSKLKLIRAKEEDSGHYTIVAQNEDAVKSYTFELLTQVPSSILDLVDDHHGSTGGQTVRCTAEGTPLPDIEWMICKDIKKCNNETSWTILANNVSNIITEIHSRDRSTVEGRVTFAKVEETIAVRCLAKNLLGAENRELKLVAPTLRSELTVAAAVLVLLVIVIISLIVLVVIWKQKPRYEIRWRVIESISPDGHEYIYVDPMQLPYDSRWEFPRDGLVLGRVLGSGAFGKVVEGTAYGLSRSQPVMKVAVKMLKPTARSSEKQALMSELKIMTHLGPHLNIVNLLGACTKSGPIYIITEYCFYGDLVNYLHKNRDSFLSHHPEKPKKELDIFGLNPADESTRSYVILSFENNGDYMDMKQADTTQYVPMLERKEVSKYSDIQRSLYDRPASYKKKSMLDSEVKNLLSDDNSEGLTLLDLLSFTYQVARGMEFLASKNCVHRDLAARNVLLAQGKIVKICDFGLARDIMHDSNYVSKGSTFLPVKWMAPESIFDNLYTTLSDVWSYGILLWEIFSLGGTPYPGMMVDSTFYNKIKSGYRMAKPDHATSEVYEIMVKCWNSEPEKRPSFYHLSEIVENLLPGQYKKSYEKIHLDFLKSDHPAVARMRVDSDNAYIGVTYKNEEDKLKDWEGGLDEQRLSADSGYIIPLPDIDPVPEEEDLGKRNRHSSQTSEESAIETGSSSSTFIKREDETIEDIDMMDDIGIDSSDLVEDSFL
Protocol: To test if PDGF-C causes increased phosphorylation of the PDGF alpha-receptor, full length and truncated PDGF-C were tested for their capacity to bind to the PDGF alpha-receptor and stimulate increased phosphorylation. Serum-starved porcine aortic endothelial (PAE) cells stably expressing the human PDGF alpha-receptor were incubated on ice for 90 minutes with PBS supplemented with 1 mg/ml BSA and 10 ng/ml of PDGF-AA, 100 ng/ml of full length human PDGF-CC homodimers (flPDGF-CC), 100 ng/ml of truncated PDGF-CC homodimers (cPDGF-CC), or a mixture of 10 ng/ml of PDGF-AA and 100 ng/ml of truncated PDGF-CC. Full length and truncated PDGF-CC homodimers were produced as described above. Sixty minutes after the addition of the polypeptides, the cells were lysed in lysis buffer (20 mM tris-HCl, pH 7.5, 0.5% Triton X-100, 0.5% deoxycholic acid, 10 mM EDTA, 1 mM orthovanadate, 1 mM PMSF 1% Trasylol). […] Bound antibodies were detected using enhanced chemiluminescence (ECL, Amersham Inc). The filters were then stripped and reprobed with the PDGF alpha-receptor rabbit antisera, and the amount of receptors was determined by incubation with horseradish peroxidase-conjugated anti-rabbit antibodies. Bound antibodies were detected using enhanced chemiluminescence (ECL, Amersham Inc). […]

[1] = system: human foreskin fibroblasts; assay: Mitogenicity for fibroblasts ([3H]thymidine incorporation); format: cell-based; conditions: 3, 10 or 30 ng/ml, 24 hours
Protocol: The assay was performed essentially as described in Mori et al., J. Biol. Chem., 1991 266:21158-21164. Serum starved human foreskin fibroblasts were incubated for 24 hours with 1 ml of serum-free medium supplemented with 1 mg/ml BSA and 3 ng/ml, 10 ng/ml or 30 ng/ml of full length PDGF-CC (flPDGF-CC), truncated PDGF-CC (cPDGF-CC) or PDGF-AA in the presence of […] [3H]thymidine. After trichloroacetic acid (TCA) precipitation, the incorporation of [3H]thymidine into DNA was determined using a beta-counter. […] PDGF-AA is included in the experiment as a control.

PDGFR-α = biological target: T1, PDGFR-α (Mus musculus, UniProt P26618); assay: PDGFR-α activation in infarct border region (immunoprecipitation, pTyr Western blot); format: in vivo; conditions: compared to control, after coronary ligation
T1 construct: from tissue; host or cells: mouse heart, infarct border region
T1 sequence (P26618 25-1089): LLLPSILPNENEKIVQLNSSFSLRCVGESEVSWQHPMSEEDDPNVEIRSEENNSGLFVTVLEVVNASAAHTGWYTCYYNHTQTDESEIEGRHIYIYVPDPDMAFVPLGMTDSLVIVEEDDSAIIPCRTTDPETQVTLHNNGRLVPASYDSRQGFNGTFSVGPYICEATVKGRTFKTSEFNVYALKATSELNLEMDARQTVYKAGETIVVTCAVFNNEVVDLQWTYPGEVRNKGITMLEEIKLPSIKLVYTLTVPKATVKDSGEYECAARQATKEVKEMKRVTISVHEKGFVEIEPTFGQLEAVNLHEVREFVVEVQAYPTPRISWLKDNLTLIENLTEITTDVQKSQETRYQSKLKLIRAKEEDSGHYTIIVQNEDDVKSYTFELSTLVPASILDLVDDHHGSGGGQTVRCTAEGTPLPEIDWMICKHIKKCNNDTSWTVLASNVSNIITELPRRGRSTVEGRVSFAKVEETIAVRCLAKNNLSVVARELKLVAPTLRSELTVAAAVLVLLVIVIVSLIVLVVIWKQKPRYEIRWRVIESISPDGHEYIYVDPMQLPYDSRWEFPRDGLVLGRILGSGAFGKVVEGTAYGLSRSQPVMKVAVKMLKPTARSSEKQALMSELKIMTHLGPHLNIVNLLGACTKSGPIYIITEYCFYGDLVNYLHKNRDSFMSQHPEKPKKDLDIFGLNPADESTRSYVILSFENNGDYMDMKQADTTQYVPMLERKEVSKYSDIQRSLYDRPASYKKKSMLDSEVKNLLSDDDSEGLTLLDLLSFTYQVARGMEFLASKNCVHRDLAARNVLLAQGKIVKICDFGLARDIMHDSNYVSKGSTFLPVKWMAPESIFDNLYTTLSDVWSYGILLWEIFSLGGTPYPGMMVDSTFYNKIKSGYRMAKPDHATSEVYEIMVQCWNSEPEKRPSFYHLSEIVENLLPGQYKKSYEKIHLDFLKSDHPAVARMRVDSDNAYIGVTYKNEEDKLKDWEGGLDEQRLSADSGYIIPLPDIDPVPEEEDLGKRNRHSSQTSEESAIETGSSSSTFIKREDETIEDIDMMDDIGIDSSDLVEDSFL

[2] = 10 μg by osmotic minipump for seven days
[3] = 10 μg by osmotic minipump for seven days, average ±SD

Chain of PDGF beta receptors (P09619 33-1106): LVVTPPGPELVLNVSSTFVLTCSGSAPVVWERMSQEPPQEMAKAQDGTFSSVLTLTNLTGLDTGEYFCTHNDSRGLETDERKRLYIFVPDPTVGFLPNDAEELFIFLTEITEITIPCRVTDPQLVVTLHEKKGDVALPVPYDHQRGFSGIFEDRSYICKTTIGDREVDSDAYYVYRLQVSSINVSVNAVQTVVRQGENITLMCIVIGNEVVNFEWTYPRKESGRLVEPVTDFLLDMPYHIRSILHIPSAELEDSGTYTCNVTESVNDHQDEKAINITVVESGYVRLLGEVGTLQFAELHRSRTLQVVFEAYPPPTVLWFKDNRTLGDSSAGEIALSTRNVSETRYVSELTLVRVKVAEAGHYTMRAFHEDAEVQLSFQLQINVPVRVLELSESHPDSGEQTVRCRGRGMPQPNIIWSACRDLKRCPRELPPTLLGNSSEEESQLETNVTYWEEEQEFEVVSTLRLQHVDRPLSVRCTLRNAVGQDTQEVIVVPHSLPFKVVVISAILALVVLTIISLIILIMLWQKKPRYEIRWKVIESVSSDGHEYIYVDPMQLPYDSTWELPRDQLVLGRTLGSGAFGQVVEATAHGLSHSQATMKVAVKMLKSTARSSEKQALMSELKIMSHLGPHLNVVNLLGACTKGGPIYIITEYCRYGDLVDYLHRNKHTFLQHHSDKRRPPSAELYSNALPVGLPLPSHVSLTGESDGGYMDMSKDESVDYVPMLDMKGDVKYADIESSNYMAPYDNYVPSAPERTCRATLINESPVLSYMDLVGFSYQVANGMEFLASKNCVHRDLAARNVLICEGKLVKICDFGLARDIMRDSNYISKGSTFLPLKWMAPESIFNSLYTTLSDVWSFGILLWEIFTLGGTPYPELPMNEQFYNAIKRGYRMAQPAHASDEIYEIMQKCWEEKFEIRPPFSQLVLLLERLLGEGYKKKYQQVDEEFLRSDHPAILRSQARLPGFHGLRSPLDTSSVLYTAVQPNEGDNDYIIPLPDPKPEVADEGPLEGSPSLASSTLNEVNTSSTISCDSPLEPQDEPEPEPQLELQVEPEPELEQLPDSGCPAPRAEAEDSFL

B1: PDGF-CC: recombinant human PDGF-CC core domain homodimer, residues 230-345 of full-length PDGF-C (SEQ ID NO:40), produced in baculovirus infected insect cells (protein)
chain: GRKSRVVDLNLLTEEVRLYSCTPRNFSVSIREELKRTDTIFWPGCLLVKRCGGNCACCLHNCNECQCVPSKVTKKYHEVLQLRPKTGVRGLHKSLTDVALEHHEECDCVCRGSTGG
modifications: homodimer; PDGF-C core domain
PDGF beta receptors
  binding to beta receptor expressing cells: not
Infarcted heart area; [2]
  large vessel (>30 μm) density relative to normal (untreated) mice: 114%
  medium vessel (10-30 μm) density relative to normal (untreated) mice: 111%
  small vessel (<10 μm) density relative to normal (untreated) mice: 159.4%
Infarcted heart area; [3]
  large vessel (>30 μm) density: 8.3±3.2 large vessels/mm^2
  medium vessel (10-30 μm) density: 14.5±3.7 medium vessels/mm^2
  small vessel (<10 μm) density: 33.2±12.5 small vessels/mm^2
Infarcted heart area; 10 μg by osmotic minipump for seven days, average ±SD, n=6
  total vessel density: 56±16.6 total vessels/mm^2
Infarcted heart area; 10 μg by osmotic minipump for seven days, infarcted area
  total vessel density relative to normal (untreated) mice: about 136%
Infarcted heart area; 30 μg per mouse over 7 days
  SMA positive large vessel density relative to normal (untreated) mice: 114%
  SMA positive medium vessel density relative to normal (untreated) mice: 142%
  SMA positive small vessel density relative to normal (untreated) mice: 145%
  thrombomodulin positive large vessel density relative to normal (untreated) mice: 167%
  thrombomodulin positive medium vessel density relative to normal (untreated) mice: 153%
  thrombomodulin positive small vessel density relative to normal (untreated) mice: 147%
  total SMA positive vessel density relative to normal (untreated) mice: 141%
  total thrombomodulin positive vessel density relative to normal (untreated) mice: 151%
PDGF alpha receptors
  PDGF alpha-receptor tyrosine phosphorylation: efficiently induced
[1]
  mitogenic activity on fibroblasts: potent mitogen
PDGFR-α
  amount of active PDGFR-α in the border region: increased
